Source: paper PMC6030378

Molecular target: human IgG1 Fc fragment released from ROR-ED-Fc by 3C protease (human)
Assay: SEC; Superdex 200 10/300 of the fusion protein cleaved with 3C protease; 50 mM HEPES, 500 mM NaCl, 150 mM KCl, 300 mM arginine, 5% glycerol; ROR-ED at 12.4 ml, Fc at 14.3 ml; mass estimated against standards, glycans considered

stoichiometry N: 2
Substance: human IgG1 Fc fragment released from ROR-ED-Fc by 3C protease (domain or fragment)
